# Source: the supplement of paper PMC7877785
# ± gives the uncertainty stated by the source.
# Assay: self-splicing fitness, log relative to wild type (ln ratio); higher = more splicing; Tetrahymena group I intron in knt gene, E. coli kanamycin selection, DiMSum; sequences stand for … in CUCUCU…GGAGGGAAAAGUUAUCAGGCAUGCACCUGGUAGCUAGUCUUUAAACCAAUAGAUUGCAUCGGUUUAAAAGGCAAGACCGUCAAAUUGCGGGAAAGGGGUCAACAGCCGUUCAGUACCAAGUCUCAGGGGAAACUUUGAGAUGGCCUUGCAAAGGGUAUGGUAAUAAGCUGACGGACAUGGUCCUAACCACGCAGCCAAGUCCUAAGUCAACAGAUCUUCUGUUGAUAUGGAUGCAGUUCACAGACUAAAUGUCGGUCGGGGAAGAUGUAUUCUUCUCAUAAGAUAUAGUCGGACCUCUCCUUAAUGGGAGCUAGCGGAUGAAGUGAUGCAACACUGGAGCCGCUGGGAACUAAUUUGUAUGCGAAAGUAUAUUGAUUAGUUUUGGAGUACUCGUGGUCG
# Method in brief: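 Library with all eight P1ex-region intron nucleotides randomised, intron inside the knt kanamycin-resistance gene on pET-22b(+), in E. coli BL21(DE3). Cells grew overnight at 37°C or 30°C on LB agar with or without 25 μg/mL kanamycin (plus 100 μg/mL carbenicillin, 50 μM IPTG, 0.2% rhamnose), in six replicate transformations. Pooled colonies were amplicon-sequenced on Illumina HiSeq 2500. DiMSum fitness is the error-weighted combination of wild-type-normalised replicate fold changes, kanamycin versus none.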
Sequence,self-splicing fitness (ln) (30 °C),self-splicing fitness (ln) (37 °C)
UCAUAGCAAUAUUACGCAGG,-3.24 ± 0.17,-3.01 ± 0.17
UCAUAGCAAUAUUACGCGCC,-3.62 ± 0.44,-1.88 ± 0.33
UCAUAGCAAUAUUACGGAAU,-3.32 ± 0.33,-3.09 ± 0.47
UCAUAGCAAUAUUACGGCCU,-3.03 ± 0.17,-2.48 ± 0.31
UCAUAGCAAUAUUACGGCGU,-3.73 ± 0.14,-3.17 ± 0.19
UCAUAGCAAUAUUACGGCUG,-1.33 ± 0.11,-1.12 ± 0.14
UCAUAGCAAUAUUACGGCUU,,-1.48 ± 0.26
UCAUAGCAAUAUUACGGGAU,-3.11 ± 0.18,-2.87 ± 0.28
UCAUAGCAAUAUUACGGGCA,-1.29 ± 0.11,-0.42 ± 0.1
UCAUAGCAAUAUUACGGUUU,-3.72 ± 0.28,-1.92 ± 0.22
UCAUAGCAAUAUUACGUACA,-2.15 ± 0.14,-1.46 ± 0.12
UCCAAGCAAUAUUACGAACG,-2.64 ± 0.15,-1.62 ± 0.23
UCCAAGCAAUAUUACGACCU,-2.9 ± 0.26,-1.95 ± 0.26
UCCAAGCAAUAUUACGACGG,-0.354 ± 0.076,0.164 ± 0.1
UCCAAGCAAUAUUACGAGUA,-0.957 ± 0.099,-0.576 ± 0.084
UCCAAGCAAUAUUACGAUUC,-2.6 ± 0.37,-2.18 ± 0.34
UCCAAGCAAUAUUACGCACA,-0.502 ± 0.092,-0.309 ± 0.099
UCCAAGCAAUAUUACGCGUG,-4.16 ± 0.21,-2.53 ± 0.2
UCCAAGCAAUAUUACGCUAA,-2.62 ± 0.14,-1.36 ± 0.13
UCCAAGCAAUAUUACGCUAU,-3.98 ± 0.47,-2.26 ± 0.23
UCCAAGCAAUAUUACGGAAA,-2.19 ± 0.2,-1.51 ± 0.23
UCCAAGCAAUAUUACGGAUC,-3.49 ± 0.15,-2.9 ± 0.16
UCCAAGCAAUAUUACGGGAC,-3.59 ± 0.25,-1.24 ± 0.21
UCCAAGCAAUAUUACGGGUC,-3.16 ± 0.13,-2.17 ± 0.14
UCCAAGCAAUAUUACGGUAU,-2.72 ± 0.14,-2.02 ± 0.12

Sequence,self-splicing fitness (ln) (30 °C),self-splicing fitness (ln) (37 °C)
UCCAAGCAAUAUUACGGUGC,-3.58 ± 0.14,-2.44 ± 0.12
UCCAAGCAAUAUUACGGUGG,-2.08 ± 0.079,-0.995 ± 0.096
UCCAAGCAAUAUUACGUAGA,-0.92 ± 0.06,0.437 ± 0.092
UCCAAGCAAUAUUACGUAUG,-4.08 ± 0.19,-2.36 ± 0.2
UCCAAGCAAUAUUACGUCAA,-2.68 ± 0.19,-0.871 ± 0.1
UCCAAGCAAUAUUACGUUGA,-0.725 ± 0.061,-0.109 ± 0.073
UCCCAGCAAUAUUACGAAAU,-3.28 ± 0.16,-1.76 ± 0.2
UCCCAGCAAUAUUACGAAGU,-2.04 ± 0.1,-1.14 ± 0.11
UCCCAGCAAUAUUACGACGA,-0.00629 ± 0.056,0.0828 ± 0.065
UCCCAGCAAUAUUACGAGAA,-1.87 ± 0.18,-0.452 ± 0.13
UCCCAGCAAUAUUACGAGCG,-3.32 ± 0.33,-2.02 ± 0.26
UCCCAGCAAUAUUACGAGGU,-1.76 ± 0.071,-0.885 ± 0.073
UCCCAGCAAUAUUACGCAAU,-2.69 ± 0.11,-2.16 ± 0.13
UCCCAGCAAUAUUACGCAGC,-3.71 ± 0.29,-3.19 ± 0.47
UCCCAGCAAUAUUACGCAGU,-1.21 ± 0.075,-0.7 ± 0.1
UCCCAGCAAUAUUACGCAUC,-4.39 ± 0.42,-1.85 ± 0.22
UCCCAGCAAUAUUACGCCAG,-2.08 ± 0.23,-2.27 ± 0.49
UCCCAGCAAUAUUACGCCGA,-0.426 ± 0.1,0.659 ± 0.13
UCCCAGCAAUAUUACGCGGU,-3.01 ± 0.13,-0.898 ± 0.087
UCCCAGCAAUAUUACGCGUC,-3.15 ± 0.19,-1.47 ± 0.18
UCCCAGCAAUAUUACGCUCU,-2.77 ± 0.16,-1.7 ± 0.17
UCCCAGCAAUAUUACGCUUA,-2.26 ± 0.14,-0.458 ± 0.11
UCCCAGCAAUAUUACGGAGC,-1.44 ± 0.098,-1.44 ± 0.18
UCCCAGCAAUAUUACGGUGU,-0.353 ± 0.043,0.504 ± 0.055
UCCCAGCAAUAUUACGGUUA,-0.244 ± 0.071,0.0867 ± 0.077

Sequence,self-splicing fitness (ln) (30 °C),self-splicing fitness (ln) (37 °C)
UCCCAGCAAUAUUACGUAAU,-2.01 ± 0.068,-0.749 ± 0.085
UCCCAGCAAUAUUACGUACG,-3.27 ± 0.2,-2.93 ± 0.3
UCCCAGCAAUAUUACGUAUG,-3.3 ± 0.16,-2.2 ± 0.16
UCCCAGCAAUAUUACGUCCA,-1.51 ± 0.12,-0.587 ± 0.12
UCCCAGCAAUAUUACGUGUC,-2.9 ± 0.15,-2.44 ± 0.16
UCCCAGCAAUAUUACGUGUU,-3.33 ± 0.12,-2.19 ± 0.11
UCCCAGCAAUAUUACGUUGA,-1.26 ± 0.066,0.408 ± 0.075
UCCGAGCAAUAUUACGAAAA,,-1.07 ± 0.37
UCCGAGCAAUAUUACGAACA,-3.11 ± 0.47,
UCCGAGCAAUAUUACGAAGG,-2.07 ± 0.11,-1.43 ± 0.13
UCCGAGCAAUAUUACGACGC,,-1.61 ± 0.42
UCCGAGCAAUAUUACGACGU,-1.05 ± 0.07,0.0752 ± 0.11
UCCGAGCAAUAUUACGAGAG,-2.57 ± 0.16,-2.91 ± 0.21
UCCGAGCAAUAUUACGAGUG,-2.41 ± 0.09,-1.34 ± 0.094
UCCGAGCAAUAUUACGAUCG,-3.27 ± 0.27,-2.51 ± 0.34
UCCGAGCAAUAUUACGAUGU,-3 ± 0.22,-1.87 ± 0.17
UCCGAGCAAUAUUACGCACU,-2.93 ± 0.25,-1.99 ± 0.22
UCCGAGCAAUAUUACGCCAG,-3.95 ± 0.28,-2.24 ± 0.31
UCCGAGCAAUAUUACGCUAC,-2.97 ± 0.38,
UCCGAGCAAUAUUACGCUAU,-2.09 ± 0.24,-3.2 ± 0.33
UCCGAGCAAUAUUACGCUCC,-1.58 ± 0.41,
UCCGAGCAAUAUUACGCUGA,-2.04 ± 0.12,-1.97 ± 0.14
UCCGAGCAAUAUUACGCUUG,-3.49 ± 0.28,-2.09 ± 0.25
UCCGAGCAAUAUUACGGACA,-2.33 ± 0.18,-0.762 ± 0.13
UCCGAGCAAUAUUACGGGAA,-3.05 ± 0.3,-1.65 ± 0.19

Sequence,self-splicing fitness (ln) (30 °C),self-splicing fitness (ln) (37 °C)
UCCGAGCAAUAUUACGGGGG,-4.27 ± 0.33,-2.47 ± 0.22
UCCGAGCAAUAUUACGGGUA,-1.06 ± 0.13,-0.229 ± 0.096
UCCGAGCAAUAUUACGGGUC,,-2.45 ± 0.26
UCCGAGCAAUAUUACGGUGG,-2.76 ± 0.14,-2.31 ± 0.2
UCCGAGCAAUAUUACGUAGU,-2.97 ± 0.16,-2.71 ± 0.18
UCCGAGCAAUAUUACGUCCG,-2.24 ± 0.24,
UCCUAGCAAUAUUACGACAC,-0.225 ± 0.29,
UCCUAGCAAUAUUACGACCU,-3.41 ± 0.48,-1.76 ± 0.31
UCCUAGCAAUAUUACGAUAG,-2.89 ± 0.33,-2.14 ± 0.35
UCCUAGCAAUAUUACGAUGC,-2.85 ± 0.21,-2.7 ± 0.29
UCCUAGCAAUAUUACGAUUG,-2.56 ± 0.24,-2.49 ± 0.45
UCCUAGCAAUAUUACGCAGU,-3.03 ± 0.15,-2.54 ± 0.2
UCCUAGCAAUAUUACGCGAC,-3.46 ± 0.32,-1.49 ± 0.31
UCCUAGCAAUAUUACGCUCC,-3.73 ± 0.33,-0.747 ± 0.24
UCCUAGCAAUAUUACGCUGA,-1.02 ± 0.11,-0.876 ± 0.12
UCCUAGCAAUAUUACGGCAA,-2.22 ± 0.2,-1.95 ± 0.19
UCCUAGCAAUAUUACGGCCU,-2.37 ± 0.34,-2.29 ± 0.37
UCCUAGCAAUAUUACGGCUC,,-1.62 ± 0.44
UCCUAGCAAUAUUACGGGGA,-2.59 ± 0.24,-1.59 ± 0.21
UCCUAGCAAUAUUACGGGGC,-3.1 ± 0.23,-2.77 ± 0.32
UCCUAGCAAUAUUACGGGGG,-3.69 ± 0.18,-2.59 ± 0.27
UCCUAGCAAUAUUACGGUAC,-3.79 ± 0.26,-3.32 ± 0.47
UCCUAGCAAUAUUACGGUCG,-1.69 ± 0.14,-1.59 ± 0.17
